Measurements taken from paper PMC5684232.
Several values for one entry are separate records, joined by “and”; a condition that tells them apart may be missing. Identical values can stand only once.

Legend:
[1] = target: human proteasome α7 subunit, wild type (self-assembled homo-tetradecamer) (human) (UniProt P25788); assay: high-speed atomic force microscopy (HS-AFM); α7 adsorbed on APTES-mica, α6 added to the observation buffer to 1 μM; 20 mM Tris-HCl (pH 8.0), 150 mM NaCl; more than 20 min after the addition of α6; 10 fps, at most 1000 frames (100 s)
[2] = target: human proteasome α7 subunit, wild type (self-assembled homo-tetradecamer) (human) (UniProt P25788); assay: high-speed atomic force microscopy (HS-AFM); α7 alone adsorbed on bare mica; 20 mM Tris-HCl (pH 8.0), 150 mM NaCl; tapping mode
[3] = target: human proteasome α7 subunit, wild type (self-assembled homo-tetradecamer) (human) (UniProt P25788); assay: high-speed atomic force microscopy (HS-AFM); α7 alone adsorbed on APTES-mica; 20 mM Tris-HCl (pH 8.0), 150 mM NaCl; tapping mode

Row | Substance | dwell time of the bound state [1] | percent of oligomers seen as double rings [2] | percent of oligomers seen as double rings [3] | stoichiometry N [3]
1 | human proteasome α6 subunit, short isoform (from UniProt P25786 1-263) (natural protein) | > 100 s | – | – | –
2 | human proteasome α7 subunit, wild type (self-assembled homo-tetradecamer) (from UniProt P25788 1-255) (natural protein) | – | 67% | 21% | 14 and 7
